The values that follow come from patent US20220289810A1.

The test addresses bovine FSH hormone receptor expressed on HEK 293T cells (bovine) (UniProt P35376). Briefly: cell-based or functional assay.
UniProt P35376, sequence (P35376 18-695): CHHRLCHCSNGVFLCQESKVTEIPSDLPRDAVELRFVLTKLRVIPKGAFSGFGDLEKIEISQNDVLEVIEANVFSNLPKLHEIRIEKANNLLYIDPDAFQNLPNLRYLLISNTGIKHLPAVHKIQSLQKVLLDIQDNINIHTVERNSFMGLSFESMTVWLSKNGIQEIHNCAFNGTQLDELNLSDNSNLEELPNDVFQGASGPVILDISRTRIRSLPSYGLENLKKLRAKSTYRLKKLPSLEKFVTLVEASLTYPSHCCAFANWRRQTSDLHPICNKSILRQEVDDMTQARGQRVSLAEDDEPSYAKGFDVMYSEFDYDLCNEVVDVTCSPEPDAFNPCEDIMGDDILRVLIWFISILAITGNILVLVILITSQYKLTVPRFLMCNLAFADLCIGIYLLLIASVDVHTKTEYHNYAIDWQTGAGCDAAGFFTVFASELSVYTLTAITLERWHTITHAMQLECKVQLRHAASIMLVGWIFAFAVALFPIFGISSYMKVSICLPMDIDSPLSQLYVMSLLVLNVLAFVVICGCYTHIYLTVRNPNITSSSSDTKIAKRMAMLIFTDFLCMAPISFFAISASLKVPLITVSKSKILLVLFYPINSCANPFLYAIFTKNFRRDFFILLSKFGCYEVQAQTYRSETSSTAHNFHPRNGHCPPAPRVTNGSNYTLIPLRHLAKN

“recombinant single chain equine chorionic gonadotropin BetaCTP-CTP-Alpha (CONSTRUCT #4) (ligand)” yielded a biological activity in vitro by stimulation of luciferase activity of 13300 IU/mg. Take “recombinant single chain equine chorionic gonadotropin NTP-BetaCTP-CTP-Alpha (CONSTRUCT #5) (ligand)”: the Estimated potency in vitro (sample 5G) is 6200 IU/mg; the biological activity in vitro by stimulation of luciferase activity was found to be 4010 IU/mg; the in vitro FSH activity (CRE-luciferase reporter, HEK 293T cells with bovine FSH receptor); affinity purified construct #5 from transiently transfected CHO cells came to 61 IU. On to “recombinant single chain equine chorionic gonadotropin CTP-BetaCTP-CTP-Alpha (CONSTRUCT #6) (ligand)”, for which the biological activity in vitro by stimulation of luciferase activity amounted to 4770 IU/mg.
